These results are taken from patent US20150368338A1 (Janssen / Centocor, published 2015).

Sequences and labels used below:
B1: IFWM3385 (antibody, IgG1, V domains shown)
VH: EVQLVQSGAEVKKPGESLKISCKGSGYSFTSYWIGWVRQMPGKGLEWMGIIDPSDSDTRYSPSFQGQVTISADKSISTAYLQWSSLKASDTAMYYCARHPGLAWAPDFDYWGQGTLVTVSS
VL: DIQMTQSPSSLSASVGDRVTITCRASQSIGDFLNWYQQKPGKAPKLLIYFASSLQSGVPSRFSGSGSGTDFTLTISSLQPEDFATYYCQQALDFPLTFGQGTKVEIK
notes: mAb; IgG1/kappa said of the parent and of selected mAbs; also called IFWB3120
B2: IFWM3405 (antibody, IgG1, V domains shown)
VH: B1 VH
VL: DIQMTQSPSSLSASVGDRVTITCRASQSIANNNLNWYQQKPGKAPKLLIHWASSLQSGVPSRFSGSGSGTDFTLTISSLQPEDFATYYCQQGYDTPFTFGQGTKVEIK
notes: mAb; IgG1/kappa said of the parent and of selected mAbs; also called IFWB3140
B3: IFWM3399 (antibody, IgG1, V domains shown)
VH: B1 VH
VL: B1 VL with G30D, D31G, F32A, L92Y
notes: mAb; IgG1/kappa said of the parent and of selected mAbs; also called IFWB3134
B4: IFWM3410 (antibody, IgG1, V domains shown)
VH: B1 VH
VL: B2 VL with N32T, G92W, T95N, F97L
notes: mAb; IgG1/kappa said of the parent and of selected mAbs; also called IFWB3145
B5: IFWM3400 (antibody, IgG1, V domains shown)
VH: B1 VH
VL: B1 VL with G30A, A91S, L92H, D93S
notes: mAb; IgG1/kappa said of the parent and of selected mAbs; also called IFWB3135
B6: IFWM3416 (antibody, IgG1, V domains shown)
VH: B1 VH
VL: B2 VL with A30R, N32T
notes: mAb; IgG1/kappa said of the parent and of selected mAbs; also called IFWB3151
B7: IFWM3304 (antibody, IgG1, V domains shown)
VH: B1 VH with A103N
VL: B1 VL with D31S, F32A, A91S, L92Y
B8: IFWM3322 (antibody, IgG1, V domains shown)
VH: B1 VH with A103N
VL: B1 VL with G30A, A91S, L92H, D93S
B9: IFWM3320 (antibody, IgG1, V domains shown)
VH: B1 VH with A103N
VL: B1 VL with G30N, D31G, F32V, A91S, L92H
B10: IFWM3314 (antibody, IgG1, V domains shown)
VH: B1 VH with A103N
VL: B1 VL with G30D, D31R, F32A, A91S, L92F
B11: IFWM371 (antibody, IgG1, V domains shown)
VH: B1 VH with A103N
VL: not shown
B12: IFWM3308 (antibody, IgG1, V domains shown)
VH: B1 VH with A103N
VL: B1 VL with G30A, D31E, A91S, L92I
B13: IFWM3307 (antibody, IgG1, V domains shown)
VH: B1 VH with A103N
VL: B1 VL
B14: IFWM3310 (antibody, IgG1, V domains shown)
VH: B1 VH with A103N
VL: B1 VL with D31K, F32S, A91S, L92Y
B15: IFWM3328 (antibody, IgG1, V domains shown)
VH: B1 VH with A103N
VL: DIQMTQSPSSLSASVGDRVTITCRASQSINNLNWYQQKPGKAPKLLIYWASSLQSGVPSRFSGSGSGTDFTLTISSLQPEDFATYYCQQGYDTPFTFGQGTKVEIK

Numbering of substitutions follows the chain as printed.

For orientation: Kd means the free concentration of one partner at which half of the binding sites on the other are occupied at equilibrium, for simple one-to-one binding.

One experiment has as its target T1, IFN-αJ1 (human, UniProt P01567 24-189).
T1 construct: Recombinant, HEK293; also called IFN-α7
The experiment can be described thus: ProteOn SPR, cell supernatant.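 Note: each binding measurement used just a single antigen concentration.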
Excerpt: (§1) To increase the assay throughput, only one concentration of the individual antigen was used.
For B1, the Kd is 0.142 nM.
The same measure, in the same setting: the figure for B2 is 0.036 nM; for B3 it is 0.05 nM; for B4 it is 0.082 nM.
On the same count and under the same terms, the figure for B5 is 0.06 nM.
On the same count and under the same terms, the figure for B6 is 0.068 nM.

The target in the next experiment is T2, IFN-α4a (human, UniProt P05014 24-189).
T2 construct: Recombinant, HEK293; also called IFN-αM1
Briefly: ProteOn SPR, cell supernatant.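 Note: each binding measurement used just a single antigen concentration.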
Excerpt: as §1
In turn, B1 registered a Kd of 0.178 nM.
On the same count and under the same terms, the figure for B2 is 0.067 nM; for B3 it is 0.088 nM.
Same read-out and setting: as for B4, the figure is 0.086 nM; as for B5, 0.135 nM.
Same read-out and setting: the figure for B6 is 0.103 nM.

For another experiment, the target named is T3, IFN-αG (human, UniProt P01569 24-189).
T3 construct: Recombinant, HEK293; also called IFN-α5
Briefly: ProteOn SPR, cell supernatant.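 Note: each binding measurement used just a single antigen concentration.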
Excerpt: as §1
In the case of B1, binding was characterised by a dissociation constant (Kd) of 0.023 nM.
Turning to B2, the Kd worked out at 0.015 nM.
The same measure, in the same setting: the figure for B3 is 0.03 nM.
Turning to B4, the Kd was determined as 0.052 nM.
Turning to B5, binding was put at a Kd of 0.052 nM.
In turn, B6 showed a Kd of 0.029 nM.

A further experiment deals with T4, IFN-αWA (human, UniProt P05015 24-189).
T4 construct: Recombinant, HEK293; also called IFN-α16
Briefly: ProteOn SPR, cell supernatant.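 Note: each binding measurement used just a single antigen concentration.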
Excerpt: as §1
Molecule B1 showed a Kd of 0.052 nM.
The molecule B2 returned a Kd of 0.039 nM.
B3 displayed a Kd of 0.037 nM.
Still for that read-out and setting: as for B4, the figure is 0.052 nM; as for B5, 0.049 nM; as for B6, 0.069 nM.

The target in another experiment is T5, IFN-αF (human, UniProt P01568 24-189).
T5 construct: Recombinant, HEK293; also called IFN-α21
T5 chain: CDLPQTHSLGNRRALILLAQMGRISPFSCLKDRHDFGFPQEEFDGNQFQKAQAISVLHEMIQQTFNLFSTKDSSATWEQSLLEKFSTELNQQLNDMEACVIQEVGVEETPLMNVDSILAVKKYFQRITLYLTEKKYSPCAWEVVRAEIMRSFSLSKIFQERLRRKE
The experiment can be described thus: ProteOn SPR, cell supernatant.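 Note: each binding measurement used just a single antigen concentration.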
Excerpt: as §1
Regarding B1, binding was characterised by a dissociation constant (Kd) of 0.041 nM.
As to B2, the Kd was 0.019 nM.
On the same count and under the same terms, the figure for B3 is 0.021 nM; for B4 it is 0.052 nM; for B5 it is 0.022 nM.
The molecule B6 returned a Kd of 0.045 nM.

The next experiment deals with T6, human IFN-ω (human, UniProt P05000 24-195).
T6 construct: Recombinant, HEK293; also called interferon omega
Briefly: ProteOn SPR, cell supernatant.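 Note: each binding measurement used just a single antigen concentration.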
Excerpt: as §1
Turning to B1, the affinity, expressed as Kd, was 0.032 nM.
Consider B2, for which the Kd is 0.02 nM.
On the same count and under the same terms, as for B3, the figure is 0.03 nM; as for B4, 0.029 nM.
On the same count and under the same terms, the figure for B5 is 0.033 nM.
For the molecule B6, binding was put at a Kd of 0.028 nM.

The target of the next experiment is T7, IFN-αC (human, UniProt P01566 24-189).
T7 construct: Recombinant, HEK293; also called IFN-α10
The experiment can be described thus: ProteOn SPR, cell supernatant.
Excerpt: as §1
B1: the affinity, expressed as Kd, was 0.041 nM.
Regarding B2, the Kd was determined as 0.022 nM.
Still for that read-out and setting: as for B3, the figure is 0.025 nM; as for B4, 0.037 nM; as for B5, 0.023 nM.
B6 showed a Kd of 0.029 nM.

The target of a further experiment is IFN-αH2 (human, UniProt P01570 24-189). The experiment can be described thus: cell-based or functional assay.
In the case of B1, the “IC50, ISRE assay” value is 0.029 nM.
As for B2, the “IC50, ISRE assay” value amounted to 0.016 nM.
Consider B3, for which the “IC50, ISRE assay” value worked out at 0.013 nM.
As for B4, the “IC50, ISRE assay” value worked out at 0.033 nM.
Turning to B5, the “IC50, ISRE assay” value came out at 0.015 nM.
The same measure, in the same setting: the figure for B6 is 0.035 nM.

A further experiment deals with T3, IFN-αG. Briefly: cell-based or functional assay.
On to B1, for which the “IC50, ISRE assay” value is 0.077 nM.
Still for that read-out and setting: the figure for B2 is 0.026 nM; for B3 it is 0.029 nM.
Still for that read-out and setting: as for B4, the figure is 0.055 nM.
As for B5, the “IC50, ISRE assay” value is 0.035 nM.
On the same count and under the same terms, as for B6, the figure is 0.049 nM.

The next experiment addresses T5, IFN-αF. Briefly: cell-based or functional assay.
Take B1: the “IC50, ISRE assay” value turned out to be 0.066 nM.
On the same count and under the same terms, the figure for B2 is 0.035 nM; for B3 it is 0.029 nM.
On the same count and under the same terms, as for B4, the figure is 0.077 nM; as for B5, 0.043 nM; as for B6, 0.064 nM.

A further experiment has as its target T7, IFN-αC. Briefly: cell-based or functional assay.
As to B1, the “IC50, ISRE assay” value was found to be 0.272 nM.
Same read-out and setting: as for B2, the figure is 0.068 nM; as for B3, 0.189 nM.
For the molecule B4, the “IC50, ISRE assay” value came out at 0.168 nM.
On the same count and under the same terms, the figure for B5 is 0.138 nM; for B6 it is 0.112 nM.

A further experiment deals with human IFN-ω (human, UniProt P05000 24-195). Briefly: cell-based or functional assay.
With B7, the “IC50 (pM), ISRE assay” value came to 31 pM.
Same read-out and setting: the figure for B8 is 59 pM; for B9 it is 53 pM; for B10 it is 32 pM.
On to B11, for which the “IC50 (pM), ISRE assay” value stood at 43900 pM.
The same measure, in the same setting: as for B12, the figure is 40 pM; as for B13, 100 pM.
The same measure, in the same setting: as for B14, the figure is 81 pM; as for B15, 456 pM.

The next experiment addresses IFN-αI (human, UniProt P01571 24-189). The experiment can be described thus: cell-based or functional assay.
B7: the “IC50 (pM), ISRE assay” value stood at 157 pM.
Same read-out and setting: as for B8, the figure is 460 pM; as for B9, 355 pM; as for B10, 163 pM.
Still for that read-out and setting: as for B12, the figure is 478 pM; as for B13, 752 pM; as for B14, 258 pM.
Same read-out and setting: the figure for B15 is 2000 pM.

For another experiment, the target named is IFN-αK (human, UniProt P05013 24-189). Briefly: cell-based or functional assay.
Regarding B7, the “IC50 (pM), ISRE assay” value is 57 pM.
Regarding B8, the “IC50 (pM), ISRE assay” value is 71 pM.
On to B9, for which the “IC50 (pM), ISRE assay” value is 34 pM.
Consider B10, for which the “IC50 (pM), ISRE assay” value came out at 65 pM.
On the same count and under the same terms, the figure for B11 is 7300 pM; for B12 it is 59 pM; for B13 it is 95 pM.
Same read-out and setting: the figure for B14 is 96 pM; for B15 it is 321 pM.

A further experiment addresses IFN-α4a (human, UniProt P05014 24-189). The experiment can be described thus: cell-based or functional assay.
As for B7, the “IC50 (pM), ISRE assay” value amounted to 112 pM.
On the same count and under the same terms, as for B8, the figure is 352 pM; as for B9, 166 pM.
For the molecule B10, the “IC50 (pM), ISRE assay” value is 137 pM.
Regarding B11, the “IC50 (pM), ISRE assay” value was determined as 32800 pM.
On the same count and under the same terms, as for B12, the figure is 295 pM.
The same measure, in the same setting: as for B13, the figure is 501 pM; as for B14, 169 pM; as for B15, 1170 pM.

The next experiment has as its target IFN-αWA (human, UniProt P05015 24-189). Briefly: cell-based or functional assay.
Take B7: the “IC50 (pM), ISRE assay” value was 237 pM.
On the same count and under the same terms, as for B8, the figure is 382 pM.
Same read-out and setting: the figure for B9 is 633 pM; for B10 it is 188 pM; for B11 it is 74200 pM.
Still for that read-out and setting: as for B12, the figure is 894 pM; as for B13, 600 pM.
On to B14, for which the “IC50 (pM), ISRE assay” value turned out to be 473 pM.
Still for that read-out and setting: as for B15, the figure is 3080 pM.

Another experiment deals with IFN-αJ1 (human, UniProt P01567 24-189). The experiment can be described thus: cell-based or functional assay.
As for B7, the “IC50 (pM), ISRE assay” value worked out at 126 pM.
Same read-out and setting: the figure for B8 is 169 pM; for B9 it is 213 pM.
Same read-out and setting: as for B10, the figure is 86 pM; as for B11, 35700 pM.
Consider B12, for which the “IC50 (pM), ISRE assay” value stood at 363 pM.
B13: the “IC50 (pM), ISRE assay” value came to 328 pM.
Still for that read-out and setting: as for B14, the figure is 166 pM; as for B15, 1660 pM.
